We go through four molecules from US20200199241A1 (Chugai, published 2020).

Common to all, as to assay: SPR, antibody captured by Protein L, human FcγR as analyte, pH 7.4, 25 C;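 further: biacore T100 or T200 with Protein L amine-coupled on a CM4 chip, FcγRs diluted in ACES saline with polysorbate 20, buffer-only injection as blank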
(In general: In SPR one partner is held on a chip, and binding of the other changes the refractive index at the surface.)

Test [1] has as its target T1, human FcγRIIa(R) (human, UniProt P12318 36-217).
T1 construct: also called hFcgRIIa(R); FcγRIIa type R
T1 chain: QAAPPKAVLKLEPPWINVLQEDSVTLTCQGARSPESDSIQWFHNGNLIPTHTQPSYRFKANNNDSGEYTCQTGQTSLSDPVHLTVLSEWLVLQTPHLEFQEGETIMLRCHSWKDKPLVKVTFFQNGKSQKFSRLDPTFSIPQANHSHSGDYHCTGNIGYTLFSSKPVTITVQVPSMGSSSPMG

Test [2] addresses T2, human FcγRIIIa(V) (human, UniProt P08637 17-208, limits assumed).
T2 construct: also called hFcgRIIIa(V); allotype V158

Test [3] deals with T3, human FcγRIIb (human, UniProt P31994 43-217, limits assumed).
T3 construct: also called hFcgRIIb; FcγIIB
T3 sequence: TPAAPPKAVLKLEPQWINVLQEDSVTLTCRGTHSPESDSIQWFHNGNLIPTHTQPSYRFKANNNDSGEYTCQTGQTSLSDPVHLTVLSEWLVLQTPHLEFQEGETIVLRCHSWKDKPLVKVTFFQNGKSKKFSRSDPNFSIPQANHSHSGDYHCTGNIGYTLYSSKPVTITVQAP

Test [4] concerns the target T4, human FcγRIIa(H) (human, UniProt P12318 36-217).
T4 construct: also called hFcgRIIa(H); FcγRIIa type H
T4 sequence: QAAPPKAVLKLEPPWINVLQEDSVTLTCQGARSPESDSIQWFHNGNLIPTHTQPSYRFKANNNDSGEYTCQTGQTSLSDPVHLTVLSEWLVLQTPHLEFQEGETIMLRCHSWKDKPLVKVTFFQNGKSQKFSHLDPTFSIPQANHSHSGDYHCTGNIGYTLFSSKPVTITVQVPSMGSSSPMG

Test [5] deals with T5, human FcγRIa (human, UniProt P12314 16-292, limits assumed).
T5 construct: also called hFcgRIa; hFcgRI
T5 sequence (P12314 16-292 limits assumed): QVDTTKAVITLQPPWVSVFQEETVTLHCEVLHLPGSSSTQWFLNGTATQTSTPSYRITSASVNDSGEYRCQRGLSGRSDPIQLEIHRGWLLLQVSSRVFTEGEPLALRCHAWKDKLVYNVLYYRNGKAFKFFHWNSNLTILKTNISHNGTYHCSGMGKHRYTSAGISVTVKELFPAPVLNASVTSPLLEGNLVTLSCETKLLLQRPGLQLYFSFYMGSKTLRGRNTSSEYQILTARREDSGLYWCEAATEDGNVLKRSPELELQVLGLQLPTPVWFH

T2 sequence (P08637 other isoform, or with tags, fused parts or gaps limits assumed): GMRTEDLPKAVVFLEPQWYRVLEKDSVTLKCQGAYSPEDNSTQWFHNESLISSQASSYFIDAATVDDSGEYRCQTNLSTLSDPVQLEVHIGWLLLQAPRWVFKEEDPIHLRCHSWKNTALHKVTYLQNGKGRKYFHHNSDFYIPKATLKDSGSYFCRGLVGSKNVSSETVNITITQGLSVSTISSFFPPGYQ

B1: antibody with VH3-IgG1-F1316 heavy chain and L(WT)-CK light chain (antibody)
heavy: QVQLQESGPGLVKPSETLSLTCAVSGHSISHDHAWSWVRQPPGEGLEWIGFISYSGITNYNPSLQGRVTISRDNSKNTLYLQMNSLRAEDTAVYYCARSLARTTAMDYWGEGTLVTVSSASTKGPSVFPLAPSSKSTSGGTAALGCLVKDYFPEPVTVSWNSGALTSGVHTFPAVLQSSGLYSLSSVVTVPSSSLGTQTYICNVNHKPSNTKVDKKVEPKSCDKTHTCPPCPAPELLGRPKVFLFPPKPKDTLYISRTPEVTCVVVDVSHEDPEVKFNWYVDGVEVHNAKTKPREEQYNSTYRVVSVLTVLHQDWLNGKEYKCKVSNKALPAPIEKTISKAKGQPREPQVYTLPPSRDELTKNQVSLTCLVKGFYPSDIAVEWESNGQPENNYKTTPPVLDSDGSFFLYSKLTVDKSRWQQGNVFSCSVMHEALHYHVTQKSLSLSP
light: not shown
notes: G237R/S239K on VH3-IgG1-F890; copies: 2 + 2
Take B1: the “BINDING AMOUNT (RU)” value was -0.33 RU in test [1]; -0.42 RU in test [2]; -0.44 RU in test [3]; -0.34 RU in test [4]; -0.12 RU in test [5].

B2: antibody with VH3-IgG1-F1318 heavy chain and L(WT)-CK light chain (antibody)
heavy: QVQLQESGPGLVKPSETLSLTCAVSGHSISHDHAWSWVRQPPGEGLEWIGFISYSGITNYNPSLQGRVTISRDNSKNTLYLQMNSLRAEDTAVYYCARSLARTTAMDYWGEGTLVTVSSASTKGPSVFPLAPSSKSTSGGTAALGCLVKDYFPEPVTVSWNSGALTSGVHTFPAVLQSSGLYSLSSVVTVPSSSLGTQTYICNVNHKPSNTKVDKKVEPKSCDKTHTCPPCPAPELLGGPKVFLFPPKPKDTLYISRTPEVTCVVVDVSHEDPEVKFNWYVDGVEVHNAKTKPREEQYNSTYRVVSVLTVLHQDWLNGKEYKCKVSNKALRAPIEKTISKAKGQPREPQVYTLPPSRDELTKNQVSLTCLVKGFYPSDIAVEWESNGQPENNYKTTPPVLDSDGSFFLYSKLTVDKSRWQQGNVFSCSVMHEALHYHVTQKSLSLSP
light: not shown
notes: S239K/P329R on VH3-IgG1-F890; copies: 2 + 2
In the case of B2, the “BINDING AMOUNT (RU)” value in test [1] was -1.59 RU; in test [2] it was -3.63 RU; in test [3] it was 0.26 RU; in test [4], -1.12 RU; in test [5] it was -0.31 RU.

B3: antibody with VH3-IgG1-F1325 heavy chain and L(WT)-CK light chain (antibody)
heavy: QVQLQESGPGLVKPSETLSLTCAVSGHSISHDHAWSWVRQPPGEGLEWIGFISYSGITNYNPSLQGRVTISRDNSKNTLYLQMNSLRAEDTAVYYCARSLARTTAMDYWGEGTLVTVSSASTKGPSVFPLAPSSKSTSGGTAALGCLVKDYFPEPVTVSWNSGALTSGVHTFPAVLQSSGLYSLSSVVTVPSSSLGTQTYICNVNHKPSNTKVDKKVEPKSCDKTHTCPPCPAPEAAGGPSVFLFPPKPKDTLYISRTPEVTCVVVDVSHEDPEVKFNWYVDGVEVHNAKTKPREEQYASTYRVVSVLTVLHQDWLNGKEYKCKVSNKALPAPIEKTISKAKGQPREPQVYTLPPSRDELTKNQVSLTCLVKGFYPSDIAVEWESNGQPENNYKTTPPVLDSDGSFFLYSKLTVDKSRWQQGNVFSCSVMHEALHYHVTQKSLSLSP
light: not shown
notes: L234A/L235A/N297A on VH3-IgG1-F890; copies: 2 + 2
Take B3: the “BINDING AMOUNT (RU)” value in test [1] was -1.17 RU; in test [2], -2.4 RU; in test [3], 1.46 RU; in test [4], -0.62 RU; in test [5], -0.47 RU.

B4: antibody with VH3-IgG1-F1317 heavy chain and L(WT)-CK light chain (antibody)
heavy: QVQLQESGPGLVKPSETLSLTCAVSGHSISHDHAWSWVRQPPGEGLEWIGFISYSGITNYNPSLQGRVTISRDNSKNTLYLQMNSLRAEDTAVYYCARSLARTTAMDYWGEGTLVTVSSASTKGPSVFPLAPSSKSTSGGTAALGCLVKDYFPEPVTVSWNSGALTSGVHTFPAVLQSSGLYSLSSVVTVPSSSLGTQTYICNVNHKPSNTKVDKKVEPKSCDKTHTCPPCPAPELLGGPKVFLFPPKPKDTLYISRTPEVTCVVVDVSHEDPEVKFNWYVDGVEVHNAKTKPREEQYNSTYRVVSVLTVLHQDWLNGKEYKCKVSNKALKAPIEKTISKAKGQPREPQVYTLPPSRDELTKNQVSLTCLVKGFYPSDIAVEWESNGQPENNYKTTPPVLDSDGSFFLYSKLTVDKSRWQQGNVFSCSVMHEALHYHVTQKSLSLSP
light: not shown
notes: S239K/P329K on VH3-IgG1-F890; copies: 2 + 2
As to B4, the “BINDING AMOUNT (RU)” value in test [1] was -1.48 RU; in test [2] it was -2.76 RU; in test [3], -0.23 RU; in test [4] it was -0.76 RU; in test [5] it was -1.46 RU.
